Assay results: patent publication US20250312499A1, “KISSPEPTIN RECEPTOR (KISS1R) TARGETED THERAPEUTICS AND USES THEREOF” (priority 2024, published 2025)
Values belong to the binder of their own block, whether it stands above or below them. Numbered stars: 1 amine (or outer) side, 2 acyl side, 3 side chain; on linkers, the order of the positions; unused ones are H or OH. Square brackets hold non-standard residues; d marks the D form. Ends that are not written are not given here. * marks the point of attachment. X2 = 4‑amino‑1‑((3-fluoro-4-methylbenzyl)glycyl)piperidine‑4‑carboxylic acid, Cc1ccc(CN(CC(=O)N2CCC(N[*:1])(C(=O)[*:2])CC2)[*:3])cc1F; X7 = 4‑amino‑1‑(N-methylcarbamimidoyl)piperidine‑4‑carboxylic acid, CNC(=N)N1CCC(N[*:1])(C(=O)[*:2])CC1; Apc(4-OMe) = 4-aminopiperidine-4-carboxylic acid residue N1-acylated by a methoxy-bearing benzylglycyl; DOTA = O=C(O)CN1CCN(CC(=O)O)CCN(CC(=O)*)CCN(CC(=O)O)CC1; Ala(9-anthryl) = N[C@@H](Cc1c2ccccc2cc2ccccc12)C(=O)O; Api(1-amidino) = N=C(N)N1CCC(N)(C(=O)O)CC1; HO(CH2CH2O)2CH2CH2CO = O=C(CCOCCOCCO)*; Phe(4-I) = N[C@@H](Cc1ccc(I)cc1)C(=O)O; d2Nal = N[C@H](Cc1ccc2ccccc2c1)C(=O)O; 4Pal = N[C@@H](Cc1ccncc1)C(=O)O; Nle = CCCC[C@H](N)C(=O)O; APM = not defined here; Ahx = NCCCCCC(=O)O; azaGly = NNC(=O)O; βAla = NCCC(=O)O

Experiments:
[1] = target: human kisspeptin receptor (KISS1R) (human), Q969F8; assay: radioligand competition, hKISS1R membranes; legend: C is >100 nM
human kisspeptin receptor (KISS1R) (human), Q969F8, sequence (Q969F8 whole entry): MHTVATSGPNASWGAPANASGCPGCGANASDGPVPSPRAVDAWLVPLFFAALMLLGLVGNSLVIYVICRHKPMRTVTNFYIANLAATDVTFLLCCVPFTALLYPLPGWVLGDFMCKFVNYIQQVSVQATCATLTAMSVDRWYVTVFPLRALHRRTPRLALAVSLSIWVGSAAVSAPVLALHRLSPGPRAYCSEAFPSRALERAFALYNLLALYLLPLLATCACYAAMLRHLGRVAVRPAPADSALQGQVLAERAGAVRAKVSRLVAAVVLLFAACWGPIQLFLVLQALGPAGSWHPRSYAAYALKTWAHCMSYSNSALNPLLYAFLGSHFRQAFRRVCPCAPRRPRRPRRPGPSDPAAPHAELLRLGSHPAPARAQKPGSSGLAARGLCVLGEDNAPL

[2] = target: human kisspeptin receptor (KISS1R) (human), Q969F8; assay: radioligand competition, hKISS1R membranes; legend: B is 10-100 nM
[3] = target: human kisspeptin receptor (KISS1R) (human) (UniProt Q969F8); assay: radioligand competition, hKISS1R membranes; legend: C is >100 nM
human kisspeptin receptor (KISS1R) (human), sequence (Q969F8 whole entry): as above

Ki [1]: > 100 nM
B1: Compound 251 (peptide)
peptide: {HO(CH2CH2O)2CH2CH2CO}-K(DOTA)TF[azaGly]L[X2][4Pal]-NH2
SMILES: Cc1ccc(CNCC(=O)N2CCC(NC(=O)[C@H](CC(C)C)NC(=O)NNC(=O)[C@H](Cc3ccccc3)NC(=O)[C@@H](NC(=O)[C@H](CCCCNC(=O)CN3CCN(CC(=O)O)CCN(CC(=O)O)CCN(CC(=O)O)CC3)NC(=O)CCOCCOCCO)[C@@H](C)O)(C(=O)N[C@@H](Cc3ccncc3)C(N)=O)CC2)cc1F

Ki [2]: 10 to 100 nM
B2: Compound 21 (peptide)
peptide: {DOTA}-[dN]F[azaGly]L[X2]W-NH2
SMILES: Cc1ccc(CNCC(=O)N2CCC(NC(=O)[C@H](CC(C)C)NC(=O)NNC(=O)[C@H](Cc3ccccc3)NC(=O)[C@@H](CC(N)=O)NC(=O)CN3CCN(CC(=O)O)CCN(CC(=O)O)CCN(CC(=O)O)CC3)(C(=O)N[C@@H](Cc3c[nH]c4ccccc34)C(N)=O)CC2)cc1F

Ki [1]: > 100 nM
Binder: {DOTA-APM}-F[azaGly]L[X2]H-NH2 (reading uncertain) [Compound 248]

Ki [1]: > 100 nM
B3: Compound 15 (peptide)
peptide: {DOTA}-[βAla][dN][dN][dE][dE][dN]F[azaGly]L[X2]W-NH2
SMILES: Cc1ccc(CNCC(=O)N2CCC(NC(=O)[C@H](CC(C)C)NC(=O)NNC(=O)[C@H](Cc3ccccc3)NC(=O)[C@@H](CC(N)=O)NC(=O)[C@@H](CCC(=O)O)NC(=O)[C@@H](CCC(=O)O)NC(=O)[C@@H](CC(N)=O)NC(=O)[C@@H](CC(N)=O)NC(=O)CCNC(=O)CN3CCN(CC(=O)O)CCN(CC(=O)O)CCN(CC(=O)O)CC3)(C(=O)N[C@@H](Cc3c[nH]c4ccccc34)C(N)=O)CC2)cc1F

Ki [1]: > 100 nM
B4: Compound 199 (peptide)
peptide: {DOTA-Ahx}-TNRNFL[Api(1-amidino)]F-NH2
SMILES: CC(C)C[C@H](NC(=O)[C@H](Cc1ccccc1)NC(=O)[C@H](CC(N)=O)NC(=O)[C@H](CCCNC(=N)N)NC(=O)[C@H](CC(N)=O)NC(=O)[C@@H](NC(=O)CCCCCNC(=O)CN1CCN(CC(=O)O)CCN(CC(=O)O)CCN(CC(=O)O)CC1)[C@@H](C)O)C(=O)NC1(C(=O)N[C@@H](Cc2ccccc2)C(N)=O)CCN(C(=N)N)CC1

Ki [1]: > 100 nM
B5: Compound 49 (peptide)
peptide: {DOTA}-F[azaGly]L[X2]W-NH2
SMILES: Cc1ccc(CNCC(=O)N2CCC(NC(=O)[C@H](CC(C)C)NC(=O)NNC(=O)[C@H](Cc3ccccc3)NC(=O)CN3CCN(CC(=O)O)CCN(CC(=O)O)CCN(CC(=O)O)CC3)(C(=O)N[C@@H](Cc3c[nH]c4ccccc34)C(N)=O)CC2)cc1F

Ki [3]: > 100 nM
B6: Compound 123 (peptide)
peptide: {DOTA}-[dY][Ala(9-anthryl)]NTF[azaGly][Nle][Api(1-amidino)][4Pal]-NH2
SMILES: CCCC[C@H](NC(=O)NNC(=O)[C@H](Cc1ccccc1)NC(=O)[C@@H](NC(=O)[C@H](CC(N)=O)NC(=O)[C@H](Cc1c2ccccc2cc2ccccc12)NC(=O)[C@@H](Cc1ccc(O)cc1)NC(=O)CN1CCN(CC(=O)O)CCN(CC(=O)O)CCN(CC(=O)O)CC1)[C@@H](C)O)C(=O)NC1(C(=O)N[C@@H](Cc2ccncc2)C(N)=O)CCN(C(=N)N)CC1

Ki [3]: > 100 nM
Binder: {DOTA-Ahx}-[dY][d2Nal]NTF[azaGly]L[4‑amino‑1‑(((tetrahydro-2H-thiopyran-4-yl)methyl)glycyl)piperidine‑4‑carboxylic acid][dW]-NH2 [Compound 375]

Ki [1]: > 100 nM
B7: Compound 16 (peptide)
peptide: {DOTA}-[βAla][dN][dN][dK][dE][dN]F[azaGly]L[X2]W-NH2
SMILES: Cc1ccc(CNCC(=O)N2CCC(NC(=O)[C@H](CC(C)C)NC(=O)NNC(=O)[C@H](Cc3ccccc3)NC(=O)[C@@H](CC(N)=O)NC(=O)[C@@H](CCC(=O)O)NC(=O)[C@@H](CCCCN)NC(=O)[C@@H](CC(N)=O)NC(=O)[C@@H](CC(N)=O)NC(=O)CCNC(=O)CN3CCN(CC(=O)O)CCN(CC(=O)O)CCN(CC(=O)O)CC3)(C(=O)N[C@@H](Cc3c[nH]c4ccccc34)C(N)=O)CC2)cc1F

Ki [1]: > 100 nM
B8: Compound 3 (peptide)
peptide: {DOTA-Ahx}-FGL[Api(1-amidino)]W-NH2
SMILES: CC(C)C[C@H](NC(=O)CNC(=O)[C@H](Cc1ccccc1)NC(=O)CCCCCNC(=O)CN1CCN(CC(=O)O)CCN(CC(=O)O)CCN(CC(=O)O)CC1)C(=O)NC1(C(=O)N[C@@H](Cc2c[nH]c3ccccc23)C(N)=O)CCN(C(=N)N)CC1

Ki [3]: > 100 nM
Binder: {DOTA-Ahx}-[dY][d2Nal]NTF[azaGly]L[4‑amino‑1‑((pyridin-4-ylmethyl)glycyl)piperidine‑4‑carboxylic acid][dW]-NH2 [Compound 370]

Ki [2]: 10 to 100 nM
B9: Compound 5 (peptide)
peptide: {DOTA-Ahx}-F[azaGly]L[Api(1-amidino)]W-NH2
SMILES: CC(C)C[C@H](NC(=O)NNC(=O)[C@H](Cc1ccccc1)NC(=O)CCCCCNC(=O)CN1CCN(CC(=O)O)CCN(CC(=O)O)CCN(CC(=O)O)CC1)C(=O)NC1(C(=O)N[C@@H](Cc2c[nH]c3ccccc23)C(N)=O)CCN(C(=N)N)CC1

Ki [3]: > 100 nM
B10: Compound 319 (peptide)
peptide: {DOTA-Ahx}-[dY][d2Nal]NTF[azaGly]L[X7][dW]-NH2
SMILES: CNC(=N)N1CCC(NC(=O)[C@H](CC(C)C)NC(=O)NNC(=O)[C@H](Cc2ccccc2)NC(=O)[C@@H](NC(=O)[C@H](CC(N)=O)NC(=O)[C@@H](Cc2ccc3ccccc3c2)NC(=O)[C@@H](Cc2ccc(O)cc2)NC(=O)CCCCCNC(=O)CN2CCN(CC(=O)O)CCN(CC(=O)O)CCN(CC(=O)O)CC2)[C@@H](C)O)(C(=O)N[C@H](Cc2c[nH]c3ccccc23)C(N)=O)CC1

Ki [2]: 10 to 100 nM
B11: Compound 121 (peptide)
peptide: {DOTA}-[dY][Phe(4-I)]NT[Phe(4-I)][azaGly]L[Api(1-amidino)][4Pal]-NH2
SMILES: CC(C)C[C@H](NC(=O)NNC(=O)[C@H](Cc1ccc(I)cc1)NC(=O)[C@@H](NC(=O)[C@H](CC(N)=O)NC(=O)[C@H](Cc1ccc(I)cc1)NC(=O)[C@@H](Cc1ccc(O)cc1)NC(=O)CN1CCN(CC(=O)O)CCN(CC(=O)O)CCN(CC(=O)O)CC1)[C@@H](C)O)C(=O)NC1(C(=O)N[C@@H](Cc2ccncc2)C(N)=O)CCN(C(=N)N)CC1

Ki [1]: > 100 nM
Binder: ENTF[azaGly][dL][Apc(4-OMe)]F [Compound 239]

Ki [1]: > 100 nM
B12: Compound 189 (peptide)
peptide: {DOTA-Ahx}-F[azaGly]L[X7]W-NH2
SMILES: CNC(=N)N1CCC(NC(=O)[C@H](CC(C)C)NC(=O)NNC(=O)[C@H](Cc2ccccc2)NC(=O)CCCCCNC(=O)CN2CCN(CC(=O)O)CCN(CC(=O)O)CCN(CC(=O)O)CC2)(C(=O)N[C@@H](Cc2c[nH]c3ccccc23)C(N)=O)CC1

Ki [1]: > 100 nM
B13: Compound 252 (peptide)
peptide: {HO(CH2CH2O)2CH2CH2CO}-K(DOTA)ETF[azaGly]L[X2][4Pal]-NH2
SMILES: Cc1ccc(CNCC(=O)N2CCC(NC(=O)[C@H](CC(C)C)NC(=O)NNC(=O)[C@H](Cc3ccccc3)NC(=O)[C@@H](NC(=O)[C@H](CCC(=O)O)NC(=O)[C@H](CCCCNC(=O)CN3CCN(CC(=O)O)CCN(CC(=O)O)CCN(CC(=O)O)CC3)NC(=O)CCOCCOCCO)[C@@H](C)O)(C(=O)N[C@@H](Cc3ccncc3)C(N)=O)CC2)cc1F
